# Reference: PMC3046049 (Science (New York, N.Y.), 2010)
# T1: PLC-β3 truncated at residue 886 (UniProt Q01970 1-886)
# T1 sequence (looked up): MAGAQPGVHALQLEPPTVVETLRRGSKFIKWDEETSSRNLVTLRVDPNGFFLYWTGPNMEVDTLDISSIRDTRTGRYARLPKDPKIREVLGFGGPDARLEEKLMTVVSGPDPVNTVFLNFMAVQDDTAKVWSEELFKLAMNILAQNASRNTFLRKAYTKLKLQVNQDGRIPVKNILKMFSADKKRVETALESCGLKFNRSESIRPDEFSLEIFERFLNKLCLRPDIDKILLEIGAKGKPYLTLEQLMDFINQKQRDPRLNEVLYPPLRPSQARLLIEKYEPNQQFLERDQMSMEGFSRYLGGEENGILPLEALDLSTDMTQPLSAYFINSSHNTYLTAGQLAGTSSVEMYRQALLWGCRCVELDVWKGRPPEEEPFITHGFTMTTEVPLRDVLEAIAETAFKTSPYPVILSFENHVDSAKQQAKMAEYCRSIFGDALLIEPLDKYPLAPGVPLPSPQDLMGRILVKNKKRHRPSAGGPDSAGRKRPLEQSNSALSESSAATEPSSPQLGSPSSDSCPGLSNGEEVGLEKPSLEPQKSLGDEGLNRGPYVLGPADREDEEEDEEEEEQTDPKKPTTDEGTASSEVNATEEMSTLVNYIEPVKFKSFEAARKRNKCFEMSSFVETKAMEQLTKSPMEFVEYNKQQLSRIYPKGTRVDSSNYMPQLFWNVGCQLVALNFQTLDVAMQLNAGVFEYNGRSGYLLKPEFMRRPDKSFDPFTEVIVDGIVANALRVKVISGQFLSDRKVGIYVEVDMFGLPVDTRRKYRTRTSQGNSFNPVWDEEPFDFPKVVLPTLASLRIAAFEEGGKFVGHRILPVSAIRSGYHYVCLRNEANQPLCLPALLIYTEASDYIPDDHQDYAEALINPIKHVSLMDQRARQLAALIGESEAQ
# B1: PLC-β3(L859A) (enzyme, UniProt Q01970 1-1234, looked up)
# chain: MAGAQPGVHALQLEPPTVVETLRRGSKFIKWDEETSSRNLVTLRVDPNGFFLYWTGPNMEVDTLDISSIRDTRTGRYARLPKDPKIREVLGFGGPDARLEEKLMTVVSGPDPVNTVFLNFMAVQDDTAKVWSEELFKLAMNILAQNASRNTFLRKAYTKLKLQVNQDGRIPVKNILKMFSADKKRVETALESCGLKFNRSESIRPDEFSLEIFERFLNKLCLRPDIDKILLEIGAKGKPYLTLEQLMDFINQKQRDPRLNEVLYPPLRPSQARLLIEKYEPNQQFLERDQMSMEGFSRYLGGEENGILPLEALDLSTDMTQPLSAYFINSSHNTYLTAGQLAGTSSVEMYRQALLWGCRCVELDVWKGRPPEEEPFITHGFTMTTEVPLRDVLEAIAETAFKTSPYPVILSFENHVDSAKQQAKMAEYCRSIFGDALLIEPLDKYPLAPGVPLPSPQDLMGRILVKNKKRHRPSAGGPDSAGRKRPLEQSNSALSESSAATEPSSPQLGSPSSDSCPGLSNGEEVGLEKPSLEPQKSLGDEGLNRGPYVLGPADREDEEEDEEEEEQTDPKKPTTDEGTASSEVNATEEMSTLVNYIEPVKFKSFEAARKRNKCFEMSSFVETKAMEQLTKSPMEFVEYNKQQLSRIYPKGTRVDSSNYMPQLFWNVGCQLVALNFQTLDVAMQLNAGVFEYNGRSGYLLKPEFMRRPDKSFDPFTEVIVDGIVANALRVKVISGQFLSDRKVGIYVEVDMFGLPVDTRRKYRTRTSQGNSFNPVWDEEPFDFPKVVLPTLASLRIAAFEEGGKFVGHRILPVSAIRSGYHYVCLRNEANQPLCLPALLIYTEASDYIPDDHQDYAEAAINPIKHVSLMDQRARQLAALIGESEAQAGQETCQDTQSQQLGSQPSSNPTPSPLDASPRRPPGPTTSPASTSLSSPGQRDDLIASILSEVAPTPLDELRGHKALVKLRSRQERDLRELRKKHQRKAVTLTRRLLDGLAQAQAEGRCRLRPGALGGAADVEDTKEGEDEAKRYQEFQNRQVQSLLELREAQVDAEAQRRLEHLRQALQRLREVVLDANTTQFKRLKEMNEREKKELQKILDRKRHNSISEAKMRDKHKKEAELTEINRRHITESVNSIRRLEEAQKQRHDRLVAGQQQVLQQLAEEEPKLLAQLAQECQEQRARLPQEIRRSLLGEMPEGLGDGPLVACASNGHAPGSSGHLSGADSESQEENTQL
# B2: Gαq (natural protein)
# chain: RRELKLLLLGTGESGKSTFIKQMRIIHGSGYSDEDKRGFTKLVYQNIFTAMQAMIRAMDTLKIPYKYEHNKAHAQLVREVDVEKVSAFENPYVDAIKSLWNDPGIQECYDRRREYQLSDSTKYYLNDLDRVADPSYLPTQQDVLRVRVPTTGIIEYPFDLQSVIFRMVDVGGQRSERRKWIHCFENVTSIMFLVALSEYDQVLVESDNENRMEESKALFRTIITYPWFQNSSVILFLNKKDLLEEKIMYSHLVDYFPEYDGPQRDAQAAREFILKMFVDLNPDSDKIIYSHFTCATDTENIRFVFAAVKDTILQLNLKEYNLV
# Key:
# [1] = molecular target: B2
# [2] = molecular target: T1, PLC-β3 truncated at residue 886
Binder,fold lower binding affinity than PLC-β3 [1] [fold],Kd [2] [nM]
B1,7,–
B2,–,~200
